Measurements published in US20250376507A1, “NOVEL TUMOR ANTIGEN-TARGETING ANTICANCER AGENT” (INDUSTRY FOUNDATION OF CHONNAM NATIONAL UNIVERSITY, priority 2022, published 2025).
Several values for one entry are separate records, joined by “and”; a condition that tells them apart may be missing. Equal values may be shown once.

B1: CRT3LP: PASylated L-ASNase fused with CRT-targeting CRT3 monobody at N-terminus and PAS200 tag plus His6 tag at C-terminus (protein)
chain: MASVSDVPRDLEVVAATPTSLLISWKLGFFKRYYRITYGETGGNSPVQEFTVPGSKSTATISGLKPGVDYTITVYAVTGQPMYGQPMYPISINYRTSGGGGSGGGGSEFLPNITILATGGTIAGGGDSATKSNYTAGKVGVENLVNAVPQLKDIANVKGEQVVNIGSQDMNDDVWLTLAKKINTDCDKTDGFVITHGTDTMEETAYFLDLTVKCDKPVVMVGAMRPSTSMSADGPFNLYNAVVTAADKASANRGVLVVMNDTVLDGRDVTKTNTTDVATFKSVNYGPLGYIHNGKIDYQRTPARKHTSDTPFDVSKLNELPKVGIVYNYANASDLPAKALVDAGYDGIVSAGVGNGNLYKTVFDTLATAAKNGTAVVRSSRVPTGATTQDVEVDDAKYGFVASGTLNPQKARVLLQLALTQTKDPQQIQQIFNQYGSSGGGGSGGGGSASPAAPAPASPAAPAPSAPAASPAAPAPASPAAPAPSAPAASPAAPAPASPAAPAPSAPAASPAAPAPASPAAPAPSAPAASPAAPAPASPAAPAPSAPAASPAAPAPASPAAPAPSAPAASPAAPAPASPAAPAPSAPAASPAAPAPASPAAPAPSAPAASPAAPAPASPAAPAPSAPAASPAAPAPASPAAPAPSAPAAGSHHHHHH
B2: CRT4LP: PASylated L-ASNase fused with CRT-targeting CRT4 monobody at N-terminus and PAS200 tag plus His6 tag at C-terminus (protein)
chain: MASVSDVPRDLEVVAATPTSLLISWGQPMYGQPMYYYRITYGETGGNSPVQEFTVPGSKSTATISGLKPGVDYTITVYAVTKLGFFKRPISINYRTSGGGGSGGGGSEFLPNITILATGGTIAGGGDSATKSNYTAGKVGVENLVNAVPQLKDIANVKGEQVVNIGSQDMNDDVWLTLAKKINTDCDKTDGFVITHGTDTMEETAYFLDLTVKCDKPVVMVGAMRPSTSMSADGPFNLYNAVVTAADKASANRGVLVVMNDTVLDGRDVTKTNTTDVATFKSVNYGPLGYIHNGKIDYQRTPARKHTSDTPFDVSKLNELPKVGIVYNYANASDLPAKALVDAGYDGIVSAGVGNGNLYKTVFDTLATAAKNGTAVVRSSRVPTGATTQDVEVDDAKYGFVASGTLNPQKARVLLQLALTQTKDPQQIQQIFNQYGSSGGGGSGGGGSASPAAPAPASPAAPAPSAPAASPAAPAPASPAAPAPSAPAASPAAPAPASPAAPAPSAPAASPAAPAPASPAAPAPSAPAASPAAPAPASPAAPAPSAPAASPAAPAPASPAAPAPSAPAASPAAPAPASPAAPAPSAPAASPAAPAPASPAAPAPSAPAASPAAPAPASPAAPAPSAPAASPAAPAPASPAAPAPSAPAAGSHHHHHH

Columns and labels:
ecto-CRT on MC-38 cells = target: T1, ecto-CRT on MC-38 cells (Mus musculus, UniProt P14211); assay: Confocal immunofluorescence staining of MC-38 cells; format: cell-based; parameters: endogenous in cells; host or cells: CT-26 and MC-38 mouse colon cancer cells (in culture, or CT-26 tumors in mice)
T1 sequence (P14211 18-416): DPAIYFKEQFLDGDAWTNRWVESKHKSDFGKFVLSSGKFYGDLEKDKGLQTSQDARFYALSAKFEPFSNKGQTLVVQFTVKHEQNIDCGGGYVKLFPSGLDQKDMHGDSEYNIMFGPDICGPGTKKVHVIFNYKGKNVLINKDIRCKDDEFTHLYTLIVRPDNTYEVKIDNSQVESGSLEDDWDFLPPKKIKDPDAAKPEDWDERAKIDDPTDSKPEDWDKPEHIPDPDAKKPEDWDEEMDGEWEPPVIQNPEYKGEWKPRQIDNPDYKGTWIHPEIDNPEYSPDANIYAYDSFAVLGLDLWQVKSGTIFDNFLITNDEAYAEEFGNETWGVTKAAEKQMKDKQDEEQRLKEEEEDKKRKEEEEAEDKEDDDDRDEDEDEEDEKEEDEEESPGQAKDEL
Experimental: (§1) PASylated CRT-targeted L-ASNases bound to ecto-CRT on cells were visualized by confocal immunofluorescence microscopy with reference to the prior art (Y. Zhang, et al., Cancers, 13(11), 2801, 2021). After overnight incubation in a cover-glass, CT-26 and MC-38 cells (104) were treated with anticancer agents for 4 h at 37° C. The cells were then fixed with 1% PFA for 15 min, stained with 100 nM PASylated recombinant proteins for 1 h on ice, and treated with anti-His tagged monobodies (diluted to 1:1000) and Alexa Fluor 488-conjugated secondary antibody for 1 h (5 μg/mL). Cell membranes were stained with Alexa Fluor 555-conjugated wheat germ agglutinin (WGA) (diluted to 1:5000). Between each step, samples were washed with cold T-PBS. Finally, the cells were incubated with 4′,6-diamidino-2-phenylindole (DAPI) (Thermo Fisher Scientific, USA) to stain the nuclei. Immunofluorescence signals were imaged using an LSM510 confocal microscope (ZEISS, Jena, Germany) and data were analyzed with ZEN-LSM imaging software (ZEISS, Jena, Germany).

MC-38 tumor = assay: In vivo anti-cancer efficacy in MC-38 tumor-bearing mice; parameters: species or system C57BL/6 mice; details: summary statement
Experimental: (§2) CT-26 and MC-38 tumor cells (106 in 100 μL PBS) were implanted subcutaneously into the right flanks of 6-week-old BALB/c and C57BL/6 female mice (Orient company, Korea), respectively. When the tumors reached about 100 mm^3, the tumor-bearing mice were injected intraperitoneally with anticancer agents (15 mg/kg GEM, 10 mg/kg DOX or 2 mg/kg MTX) three times every 2 days. Simultaneously, the mice were injected intravenously with the PASylated recombinant proteins of the present invention five times every 2 days. The length (L), width (W), and height (H) of each tumor were recorded every 3 days using a digital caliper, and the tumor volume (mm3) was calculated using the following formula (L×H×W)/2. Mice were euthanized when tumors were ˜1,500 mm^3 and all animal experiments were performed in accordance with the general principles and procedures outlined in the National Institutes of Health Guidelines, and all protocols were approved by the Chonnam National University Animal Care and Use Committee (permit number: HCRL 16-001).

ecto-CRT on CT-26 cells [1] = target: T2, ecto-CRT on CT-26 cells (Mus musculus, UniProt P14211); assay: Confocal immunofluorescence staining of CT-26 cells; format: cell-based; parameters: endogenous in cells; host or cells: CT-26 and MC-38 mouse colon cancer cells (in culture, or CT-26 tumors in mice)
T2 sequence (P14211 18-416): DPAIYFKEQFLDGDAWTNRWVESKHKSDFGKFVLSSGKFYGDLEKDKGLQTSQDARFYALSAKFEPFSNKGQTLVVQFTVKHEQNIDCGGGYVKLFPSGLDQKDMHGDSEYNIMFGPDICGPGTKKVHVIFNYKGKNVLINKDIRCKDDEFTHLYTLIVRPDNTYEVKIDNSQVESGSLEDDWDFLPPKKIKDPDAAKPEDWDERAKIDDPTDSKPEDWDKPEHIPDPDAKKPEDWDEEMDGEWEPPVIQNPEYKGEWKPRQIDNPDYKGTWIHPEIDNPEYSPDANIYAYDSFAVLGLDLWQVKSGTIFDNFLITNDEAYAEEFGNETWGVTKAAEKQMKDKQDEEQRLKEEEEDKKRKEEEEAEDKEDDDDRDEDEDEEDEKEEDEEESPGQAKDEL
Experimental: as §1

CT-26 tumor = assay: In vivo anti-cancer efficacy in CT-26 tumor-bearing mice; details: for tumor suppression in mice treated with GEM: combination with GEM (non-ICD-inducing); for tumor growth in mice treated with ICD-inducing drugs: summary statement, doxorubicin and mitozantrone
Experimental: as §2

CT-26 cells = assay: Cell viability (CCK-8) of CT-26 cells; format: cell-based, mouse; details: 1 IU/mL; for cell viability: 24 h, no anticancer pretreatment; for reduction of viability of cells pretreated with DOX and MTX, higher extent: 24 h after DOX or MTX pretreatment; for reduction in cell viability in cells pretreated with GEM: 24 h after GEM pretreatment
Experimental: CT-26 and MC-38 cells (10^4 cells per well) were seeded into three wells of a 96-well plate and incubated at 37° C. The next day, the culture medium was replaced with 100 μL of fresh medium containing the above concentrations of anticancer agents. After incubation at 37° C. for 4 h, the culture medium was removed and the cells were washed three times with PBS. […] Finally, CCK-8 reagent (10 μL/well) was added for 3 h at 37° C., and the amount of color in each sample was measured at OD450.

ecto-CRT on CT-26 cells [2] = target: T2, ecto-CRT on CT-26 cells; assay: Flow cytometry binding to anticancer-agent-treated CT-26 cells; format: cell-based; details: for binding to cells: 100 nM protein; for binding after pretreatment with anti-CRT antibodies: CT-26 cells treated with DOX or MTX
Experimental: Cells were cultured at 37° C. in DMEM medium supplemented with 10% FBS and 100 U of streptomycin/penicillin in an atmosphere of 5% CO2. Cells were treated with each anticancer drug [3 μM methotrexate (MTX), 25 μM […] (DOX), or 15 μM gemcitabine (GEM)] to induce apoptosis (Y. Zhang, et al., Cancers, 13 (11), 2801, 2021). After 4 h of incubation, the cells were scraped and detached from the plate. The cells (10^5) were fixed with 1% PFA for 15 min and then treated with 100 nM of PASylated recombinant proteins for 1 h on ice. After washing five times with cold PBS buffer containing 0.1% Tween-20 (T-PBS), the cells were incubated with anti-His tagged monobodies (diluted to 1:1000) for 1 h and then treated with Alexa Fluor 488-conjugated secondary antibodies (5 μg/mL) for 1 h. Fluorescence signals were detected by FACSCanto II Flow Cytometer (BD Biosciences, USA). For blocking experiments, cells were first incubated with anticancer agents for 4 h and fixed with 1% PFA. Cells were then incubated with anti-CRT antibodies (diluted to1: 400) for 1 h to mask ecto-CRT. Cells were stained with PASylated recombinant proteins and followed the same procedure as described above.

[3] = MC-38 cells treated with DOX or MTX
[4] = CT-26 cells treated with DOX or MTX
[5] = CT-26 cells treated with DOX and MTX
[6] = CT-26 cells with GEM or PBS treatment

Row | Molecule | immunofluorescence staining, binding to cells (ecto-CRT on MC-38 cells; [3]) | immunofluorescence staining, binding to cells (ecto-CRT on MC-38 cells; MC-38 cells treated with GEM) | tumor growth in mice treated with ICD-inducing drugs (MC-38 tumor) | immunofluorescence staining, binding to cells (ecto-CRT on CT-26 cells [1]; [4]) | immunofluorescence staining, binding to cells (ecto-CRT on CT-26 cells [1]; CT-26 cells treated with GEM) | sudden death of mice (CT-26 tumor; 20 IU CRT3LP per injection, DOX-treated mice, by day 12) | optimal therapeutic dose (CT-26 tumor; DOX-treated mice) [IU/injection/mouse] | tumor suppression in mice treated with GEM (CT-26 tumor) | tumor growth in mice treated with ICD-inducing drugs (CT-26 tumor) | cell viability (CT-26 cells) | reduction of viability of cells pretreated with DOX and MTX, higher extent (CT-26 cells) [fold] | reduction in cell viability in cells pretreated with GEM (CT-26 cells) | binding to cells (ecto-CRT on CT-26 cells [2]; [5]) | binding after pretreatment with anti-CRT antibodies (ecto-CRT on CT-26 cells [2]) | binding to cells (ecto-CRT on CT-26 cells [2]; [6])
1 | B1 | only bound | not | significantly inhibiting tumor growth | only bound | not | caused sudden death and 2 out of 3 and Two of the mice injected with 20 IU died | 8 | not and did not enhance tumor suppression | significantly inhibiting tumor growth | barely affected | 2 | not observed | efficiently bound | significantly inhibited | not
2 | B2 | only bound | not | significantly inhibiting tumor growth | only bound | not |  |  | not and did not enhance tumor suppression | significantly inhibiting tumor growth | barely affected | 2 | not observed | efficiently bound | significantly inhibited | not
